The data set concerns the molecule itself. Kind of data set: cross-linking.

As a reminder, the stoichiometry N is a count of units in the complex or per binding partner.

B1: His6-PfORC1N_(1–238) (domain or fragment, Plasmodium falciparum 3D7, UniProt Q8I615 1-238, looked up)
chain: MTPKKKIFQNFQANDNEILSPTKKGIKLNVSKLNILNFENTIITKEKTNYEYKASLNKEIDEVLNNNNIINTHNNKKNNLNLYDYNNIKNSTHEFYIDLNEQNKQTIKYNDNKFTPINKKEKYNLDETSSSSISSSLTNISSSLTNISSSLTNISSSLSNSLDEKKKKKKIKKNNSTIINILNNNNNNSNIHHNNKHNIYNKYNISKKPQNKEIHTLPSNHQIKKKSNNTYNTCQQKM
Consider B1, for which the “stoichiometry N” value was determined as 2.

Values taken from article PMC3384324 (Nucleic Acids Research, 2012).
